Experimental data published in US20030130166A1, “Polynucleotide encoding a human junctional adhesion protein (JAM2)” (priority 1999, published 2003).
Bridges are numbered along the chain shown (N, C = ends). Where no end group is shown, it is not given here.

T1: human JAM3 (Junctional Adhesion Molecule 3), endogenous on HSB T cells (human, UniProt Q9BX67 32-310)
T1 construct: whole, on cells; also called cell surface JAM3; 43 kDa protein
T1 sequence (looked up): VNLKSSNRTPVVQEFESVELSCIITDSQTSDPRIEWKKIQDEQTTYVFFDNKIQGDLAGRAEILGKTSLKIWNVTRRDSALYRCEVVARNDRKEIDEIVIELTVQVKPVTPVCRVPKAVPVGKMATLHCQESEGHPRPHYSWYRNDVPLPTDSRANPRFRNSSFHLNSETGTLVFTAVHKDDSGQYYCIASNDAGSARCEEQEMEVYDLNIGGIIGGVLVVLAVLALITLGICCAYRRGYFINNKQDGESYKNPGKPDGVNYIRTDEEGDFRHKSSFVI

B1: JAM2-Fc (extracellular domain of human JAM2 fused to the constant region of mouse IgG-2a, secreted from Sf21 insect cells) (Fc fusion)
chain: FSAPKDQQVVTAVEYQEAILACKTPKKTVSSRLEWKKLGRSVSFVYYQQTLQGDFKNRAEMIDFNIRIKNVTRSDAGKYRCEVSAPSEQGQNLEEDTVTLEVLVAPAVPSCEVPSSALSGTVVELRCQDKEGNPAPEYTWFKDGIRLLENPRLGSQSTNSSYTMNTKTGTLQFNTVSKLDTGEYSCEARNSVGYRRCPGKRMQVDDLNIS
notes: In the assays it was captured on 96 well plates by goat anti-mouse IgG2a; also called recombinant JAM2; JAM2 extracellular domain; not shown: constant region of mouse IgG-2a (mIgG2a) from the modified pFastBac1 vector
B2: JAM2-Fc: extracellular domain of human JAM2 secreted from Sf21 insect cells as a fusion to mIgG2a (protein)
chain: B1 chain
modifications: left off: a dimerising Fc or GST
notes: extracellular domain of human JAM2 secreted from Sf21 insect cells as a fusion to mIgG2a
B3: TBC 772, cyclic hexapeptide (C*WLDVC*), antagonist of alpha 4 integrins (peptide)
peptide: CWLDVC
modifications: bridge 1-6; also: cyclic hexapeptide, bond type between C* residues not given here
B4: soluble JAM3 (JAM3 ectodomain from a JAM3-Fc fusion digested with thrombin and purified to remove the Fc) (receptor, human, UniProt Q9BX67 32-241, looked up)
chain: VNLKSSNRTPVVQEFESVELSCIITDSQTSDPRIEWKKIQDEQTTYVFFDNKIQGDLAGRAEILGKTSLKIWNVTRRDSALYRCEVVARNDRKEIDEIVIELTVQVKPVTPVCRVPKAVPVGKMATLHCQESEGHPRPHYSWYRNDVPLPTDSRANPRFRNSSFHLNSETGTLVFTAVHKDDSGQYYCIASNDAGSARCEEQEMEVYDLN
notes: extracellular domain; It was added at a 10-fold molar ratio; also called soluble JAM3 ectodomain
B5: human JAM1-Fc (Fc fusion, UniProt Q9Y624 28-238, looked up)
chain: SVTVHSSEPEVRIPENNPVKLSCAYSGFSSPRVEWKFDQGDTTRLVCYNNKITASYEDRVTFLPTGITFKSVTREDTGTYTCMVSEEGGNSYGEVKVKLIVLVPPSKPTVNIPSSATIGNRAVLTCSEQDGSPPSEYTWFKDGIVMPTNPKSTRAFSNSSYVLNPTTGELVFDPLSASDTGEYSCEARNGYGTPMTSNAVRMEAVERNVGV
notes: not shown: Fc part not described for this construct
B6: human JAM1-Fc: Fc fusion of JAM1, the human homologue of mouse JAM (protein)
chain: B5 chain
modifications: left off: a dimerising Fc or GST
notes: Fc fusion of JAM1, the human homologue of mouse JAM
B7: N-terminal Ig-fold of JAM2: first Ig domain of JAM2 synthesized as a secreted protein in insect cells (protein)
chain: FSAPKDQQVVTAVEYQEAILACKTPKKTVSSRLEWKKLGRSVSFVYYQQTLQGDFKNRAEMIDFNIRIKNVTRSDAGKYRCEVSAPSEQGQNLEEDTVTLEV
modifications: left off: a dimerising Fc or GST
notes: first Ig domain of JAM2 synthesized as a secreted protein in insect cells

Experiments:
[1] = target: T1, human JAM3 (Junctional Adhesion …); test: adhesion of calcein-loaded HSB cells to captured JAM2-Fc in TBS+Ca/Mg/Mn (FIG. 7)
Protocol: In vitro adhesion assays were performed in 96 well plates essentially as described in Todderud, G., J. J. Leukoc. Biol. 52:85 (1992), herein incorporated by reference. Briefly, 50 μl of goat anti-mouse IgG2a was coated at 5 μg/ml in PBS and used to capture 4.8 pmoles of JAM2-Fc or mIgG2a (control). Various leukocyte cell lines i.e. T lymphocytes, HSB, HPB-ALL; B lymphocytes, RAMOS; monocytic cells, HL60, THP-1, and the erythroleukemic, K562 lines were labeled with calcein (Molecular Probes Inc., Eugene, Oreg.) at 50 μg/ml for 25 minutes at 37° C. with 250,000 cells/well in binding buffer that consisted of Tris buffered saline plus 1 mM each of CaCl₂, MgCl₂ and MnCl₂. Wells were washed 3×, lysed with 50 mM Tris (pH 7.5), 5 mM EDTA, 1% NP40, and fluorescence read in a Cytofluor with excitation at 485/20 nm and emission at 530/25 nm. Specific binding was calculated as fluorescence with JAM2-Fc minus fluorescence with mIgG2a. For antibody inhibition, protein captured on wells or HSB cells were incubated for 30 min at RT in binding buffer with 1:100×dilution of preimmune (normal mouse serum) or anti-JAM2 mouse polyclonal serum. […] Overall differences among experimental groups for each parameter were first assessed by one-way analysis of variance (ANOVA) and individual pairwise group comparisons were analyzed by Fisher's protected least significance difference (PLSD) post hoc test. […]

HPB-ALL = test: In vitro adhesion assay, calcein loaded cells on captured Fc fusion protein; type: cell-based; conditions: binding buffer: TBS plus 1 mM calcium, magnesium and manganese; FIG. 7
Protocol: (§1) Biol. 52:85 (1992), herein incorporated by reference.
(§2) The capacity of JAM2 extracellular domain to adhere to various leukocyte cell lines according to a previously established in vitro binding assay performed under static conditions was next examined (see Todderud, G., J. Leukoc, Biol. 52:85(1992)). Calcein loaded cells were allowed to interact with JAM2-Fc captured in 96 well plates in binding buffer (hereinafter “BB”) which contained TBS plus 1 mM calcium, magnesium and manganese. Non-specific binding of cells to captured mIgG2a was determined simultaneously and subtracted. […] Binding to the erythroleukemic K562 cell lines was non-existent.

HSB cells = test: as above; type: cell-based
Protocol: as §1, §2

K562 cell lines = test: as above; type: cell-based; conditions: binding buffer: TBS plus 1 mM calcium, magnesium and manganese; FIG. 7
Protocol: as §1, §2

[2] = target: T2, α4β1 integrin, endogenous on HSB T cells (UniProt P13612 34-1032; P05556 21-798, limits assumed); test: inhibition of Mn-enhanced adhesion of calcein-loaded HSB cells to captured JAM2-Fc (FIG. 12B)
T2 construct: whole, on cells; also called α4 integrin; alpha 4 integrin
Protocol: (§3) JAM2-Fc adhesion to T cell lines was performed by capture of fusion protein by goat anti-mouse coated 96 well plates as described in Cunningham et al., J. Biol. Chem., 275:34750-34756 (2000). The HSB cells were loaded with calcien-AM (Molecular Probes Inc., Eugene Oreg.) and re-suspended in Tris Buffered Saline (TBS) with or without the addition of 1 mM MnCl₂. Binding to mouse IgG2a was used to subtract background. Soluble JAM3 was generated from a JAM3-Fc fusion that was digested with thrombin and purified to remove the Fc component. Neutralizing anti-JAM3 polyclonal serum was generated in mice using human JAM3 extracellular domain as immunogen. […] Following adhesion for 90 minutes at 37° C., wells were washed 3 times at room temperature. Adhered cells were lyzed and fluorescence quantified in a Cytofluor with excitation at 485/20 nm and emission at 530/25.

[3] = target: B1; test: the inventors' reading of the inhibition of HSB adhesion to captured JAM2-Fc by soluble JAM3 (FIG. 13A)
Protocol: as §3
The inventors believe that soluble JAM3 ectodomain would bind to the JAM2 on the well surface and prevent its interaction with JAM3 on the HSB cell surface. It is concluded that under these conditions, that JAM2 is unable to engage α4 integrin. Therefore, a specific interaction of JAM2 with cell-surface bound JAM3 is necessary before JAM2 can bind α4 integrin. Likewise, if neutralizing anti-JAM3 antibodies are used to prevent JAM2 binding to cell surface JAM3, then JAM2 is also unable to engage integrin (FIG. 13B).

[4] = target: T1, human JAM3 (Junctional Adhesion …); test: adhesion of calcein-loaded HSB cells to Fc fusion protein

T2 sequence (P13612 34-1032 limits assumed, chain 1 of 2): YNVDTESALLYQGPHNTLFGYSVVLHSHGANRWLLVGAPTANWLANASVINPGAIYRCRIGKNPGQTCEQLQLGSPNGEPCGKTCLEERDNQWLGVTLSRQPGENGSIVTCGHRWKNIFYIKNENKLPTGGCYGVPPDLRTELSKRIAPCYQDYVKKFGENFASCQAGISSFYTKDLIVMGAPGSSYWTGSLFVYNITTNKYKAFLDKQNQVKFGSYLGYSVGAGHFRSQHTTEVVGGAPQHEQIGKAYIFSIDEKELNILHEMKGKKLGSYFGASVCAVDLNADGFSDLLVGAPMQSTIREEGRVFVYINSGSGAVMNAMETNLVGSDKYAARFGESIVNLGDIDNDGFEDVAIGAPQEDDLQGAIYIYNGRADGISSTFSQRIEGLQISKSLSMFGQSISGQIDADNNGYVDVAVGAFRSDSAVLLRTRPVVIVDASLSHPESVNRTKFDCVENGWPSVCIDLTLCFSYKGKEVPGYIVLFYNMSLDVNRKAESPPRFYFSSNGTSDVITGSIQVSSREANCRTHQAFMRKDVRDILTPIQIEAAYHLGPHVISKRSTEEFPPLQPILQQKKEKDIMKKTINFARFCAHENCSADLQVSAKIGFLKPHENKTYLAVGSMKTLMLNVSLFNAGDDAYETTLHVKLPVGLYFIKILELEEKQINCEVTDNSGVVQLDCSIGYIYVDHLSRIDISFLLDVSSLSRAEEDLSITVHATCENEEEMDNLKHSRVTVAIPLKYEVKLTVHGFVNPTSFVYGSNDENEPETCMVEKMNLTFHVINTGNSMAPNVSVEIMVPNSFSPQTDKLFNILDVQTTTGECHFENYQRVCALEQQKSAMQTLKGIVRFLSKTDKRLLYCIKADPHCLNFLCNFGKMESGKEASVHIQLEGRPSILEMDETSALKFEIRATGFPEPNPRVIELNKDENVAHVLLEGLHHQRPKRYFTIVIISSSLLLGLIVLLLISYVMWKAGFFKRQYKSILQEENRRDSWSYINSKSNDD
T2 sequence (P05556 21-798 limits assumed, chain 2 of 2): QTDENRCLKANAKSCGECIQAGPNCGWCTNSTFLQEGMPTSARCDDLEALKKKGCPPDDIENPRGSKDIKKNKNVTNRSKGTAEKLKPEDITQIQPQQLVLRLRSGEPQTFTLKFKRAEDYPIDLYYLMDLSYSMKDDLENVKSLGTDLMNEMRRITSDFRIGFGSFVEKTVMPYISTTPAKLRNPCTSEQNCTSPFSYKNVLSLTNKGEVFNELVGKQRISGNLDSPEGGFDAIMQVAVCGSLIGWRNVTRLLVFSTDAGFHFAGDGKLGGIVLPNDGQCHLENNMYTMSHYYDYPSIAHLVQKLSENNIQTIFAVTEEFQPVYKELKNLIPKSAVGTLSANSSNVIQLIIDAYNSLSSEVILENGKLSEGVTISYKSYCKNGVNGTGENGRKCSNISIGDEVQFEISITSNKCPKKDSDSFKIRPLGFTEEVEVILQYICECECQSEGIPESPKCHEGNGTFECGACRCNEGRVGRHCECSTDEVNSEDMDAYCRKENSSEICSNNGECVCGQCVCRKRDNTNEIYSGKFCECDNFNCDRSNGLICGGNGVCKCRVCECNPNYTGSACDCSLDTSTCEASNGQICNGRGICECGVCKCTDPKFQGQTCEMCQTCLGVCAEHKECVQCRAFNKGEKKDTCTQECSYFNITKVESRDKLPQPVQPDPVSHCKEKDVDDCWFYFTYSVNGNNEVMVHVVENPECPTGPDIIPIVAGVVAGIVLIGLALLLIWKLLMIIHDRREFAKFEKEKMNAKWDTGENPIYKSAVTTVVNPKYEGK

**Q.** Does B1 bind [1]?
**A.** binds

**Q.** Which “capture of HPB-ALL cells” value (HPB-ALL) does the source give for B2 here?
**A.** quite efficiently

**Q.** What about the “capture of HSB cells” value (HSB cells; binding buffer: TBS plus 1 mM calcium, magnesium and manganese, FIG. 7) of the same molecule?
**A.** quite efficiently

**Q.** What about the “binding to K562 cells” value (K562 cell lines) of the same molecule?
**A.** non-existent

**Q.** B3 was tested. Which IC50 [2] did it give?
**A.** ~60 nM

**Q.** Does B4 bind [3]?
**A.** binds

**Q.** Does B5 bind [4]?
**A.** no binding

**Q.** For B6, which “binding of calcein loaded HSB cells” value (HSB cells) is on record?
**A.** unable to bind

**Q.** Which “adhesion to HSB cells” value (HSB cells; TBS and TBS+Mn, FIG. 10) does the source give for B7 here?
**A.** capable of adhering to HSB cells
